Earlier results as cited in paper PMC3134471.

Target: luteinizing hormone receptor (Homo sapiens) (UniProt P22888)
Chain of UniProt P22888 (P22888 27-699): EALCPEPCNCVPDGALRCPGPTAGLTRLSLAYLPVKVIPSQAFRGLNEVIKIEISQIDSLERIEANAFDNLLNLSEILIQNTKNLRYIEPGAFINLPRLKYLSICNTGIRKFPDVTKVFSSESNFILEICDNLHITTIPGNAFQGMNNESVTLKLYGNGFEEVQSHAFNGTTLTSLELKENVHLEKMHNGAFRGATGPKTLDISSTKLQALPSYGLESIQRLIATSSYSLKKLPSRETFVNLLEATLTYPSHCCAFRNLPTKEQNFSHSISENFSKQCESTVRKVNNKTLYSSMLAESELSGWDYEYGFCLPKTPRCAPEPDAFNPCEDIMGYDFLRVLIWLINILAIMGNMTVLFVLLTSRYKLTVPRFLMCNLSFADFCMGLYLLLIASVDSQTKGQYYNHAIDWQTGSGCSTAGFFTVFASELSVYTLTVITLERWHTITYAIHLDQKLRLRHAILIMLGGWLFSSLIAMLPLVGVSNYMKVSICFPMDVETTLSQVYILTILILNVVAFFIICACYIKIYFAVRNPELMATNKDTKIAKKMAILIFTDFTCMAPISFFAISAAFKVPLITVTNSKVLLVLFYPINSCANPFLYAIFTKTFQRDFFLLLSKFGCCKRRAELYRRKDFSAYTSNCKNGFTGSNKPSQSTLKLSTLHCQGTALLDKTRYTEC

- Kd: 300 pM
Substance: human chorionic gonadotropin (from UniProt P01215)
